Source: paper PMC5923107 (2018)

Target: biotinylated HA antigen of B/Florida/04/2006 (influenza B virus B/Florida/04/2006, biotin (site not stated))
Test: BLI

B1: TRL847 (antibody, V domains shown)
VH: QVQLVESGGGLVQPGGSLRLSCVASGFTFSRFSMNWVRQAPGMGLEWVSYISDTGRTIYYADSVKGRFTISRDNDKNTLYLQMKSLRDEDSAFYYCARDPDTPFVRAFDSWGQGVLVTVSS
VL: DIVMTQSPSFLSASVGDRVTITCRTSQVISSYLAWYQQRPGKAPKLLIYAASTLQSGVPSRFSGSGSGTRFSLTISNLQPEDFATYFCQQLTTYPPITFGQGTRLEIK
  Kd: 0.7 nM

B2: TRL854 (antibody, V domains shown)
VH: QVQLVESGAEVKKPGASVRVSCKGSGYTFTAYHMHWVRQAPGQGFEWVGWINPNSGATYYTSTFEGRVTMTRDTSITTAYMELSSLRSDDTAVYYCATDIVVERDASLGGFNSYGMDVWGQGTTVTVSS
VL: DIEMTQSPLSLPVTPGEPASISCRSSQSLLHSNGYNHLAWYLQKPGRSPHLLIYLASTRASGVPDRFSGSGSGTDFTLKISRVEAEDVGIYYCMQSLQTSITFGQGTRLEIK
  Kd: 8.8 nM

B3: TRL848 (antibody, V domains shown)
VH: QVQLLESGGDVVQPGTSLRLSCAASGFSLWTSGMHWVRQAPGKGLEWVAVMSYDETKKYYADSVRGRFSISRDNSRNTLYLQMNSLRVEDTAVYFCAKPRLDYLDYFHAADSWGQGTLVSVSS
VL: DIVLTQPPSVSVAPGQTATITCGGNYIGSKSVNWYQQRPGHAPVLVVYDDSDRPSGIPDRFSGSNSRSTATTATLTISRVEAGDEADYYCQVWETSEDLWVFGGGTKLTVL
  Kd: 1.7 nM
